The values that follow come from the supplement of paper PMC10724198.

In this data set the test system is Saccharomyces cerevisiae. The experiment in a line: protein stability index of tFT-peptide fusion (C-terminal peptide) (PSI (0-1 scale)); higher = more stable (slower turnover). The settings on record: temperature: 30 C. On the procedure:
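MPS profiling in S. cerevisiae of the yeast C-terminome library: the last 12 aa of each annotated ORF are fused to the C-terminus of a sfGFP-mCherry timer, after a GGGS linker. Cells are FACS-sorted into 8 mCherry/sfGFP bins and deep-sequenced. PSI runs from 0 (unstable) to 1 (stable); wild type and das1Δ backgrounds, two technical replicates each.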

The mark [1] stands for this setting: genetic background: das1 deletion.

± gives the standard deviation of the averaged measurements.

For INEFIEQSCKGE [YMR187C C-terminal 12 aa], the protein stability index runs as follows: under setting [1], 0.687 ± 0.024; (genetic background: wild type) 0.7 ± 0.044.
The matching figures for INQEAYQAFLRR [GUF1 C-terminal 12 aa]: 0.7022 ± 0.0031 and 0.7039 ± 0.0062.
IPPLIWLRKKRC [PUL3 C-terminal 12 aa] yielded a protein stability index under setting [1] of 0.69553 ± 0.00032 and a protein stability index (genetic background: wild type) of 0.664 ± 0.0097.
The matching figures for IQEISAAVKKYT [SAM4 C-terminal 12 aa]: 0.704 ± 0.014 and 0.728 ± 0.038.
For IQTLRIKQDRYK [MAK10 C-terminal 12 aa], the protein stability index is 0.711 ± 0.0083 under setting [1] and 0.665 ± 0.029 (genetic background: wild type).
Take ISEIEQLLSKLK [ATP4 C-terminal 12 aa]: the protein stability index was 0.698 ± 0.014 under setting [1] and 0.684 ± 0.045 (genetic background: wild type).
On the same counts, the results for ISNDMQVPPQIS [CKS1 C-terminal 12 aa] are 0.722 ± 0.0098 and 0.688 ± 0.011.
The matching figures for ISPSKSITMVAE [YDR526C C-terminal 12 aa]: 0.689 ± 0.011 and 0.6363 ± 0.0024.
For ITNEVNIYSPFF [YOR105W C-terminal 12 aa], the protein stability index stood at 0.73841 ± 0.00012 under setting [1] and 0.7762 ± 0.0059 (genetic background: wild type).
For IVFVPSSSYSVN [YJR157W C-terminal 12 aa], the protein stability index was found to be 0.711 ± 0.014 under setting [1] and 0.671 ± 0.021 (genetic background: wild type).
On the same counts, the results for IVILIFDRLLSN [YGL081W C-terminal 12 aa] are 0.394 ± 0.021 and 0.425 ± 0.03.
IVIQVNNPLTRA [DOG1 C-terminal 12 aa]: the protein stability index is, setting by setting: under setting [1], 0.66 ± 0.011; (genetic background: wild type) 0.7098 ± 0.0059.
As for IVIQVNNPLTRD [DOG2 C-terminal 12 aa], the protein stability index is, setting by setting: under setting [1], 0.692 ± 0.099; (genetic background: wild type) 0.643 ± 0.0052.
On the same counts, the results for IVQLGMSHGDIS [SMF1 C-terminal 12 aa] are 0.711 ± 0.028 and 0.699 ± 0.023.
As for “IYAALPKSKIKL [YMR304C-A C-terminal 12 aa]”, the protein stability index was 0.698 ± 0.012 under setting [1] and 0.737 ± 0.013 (genetic background: wild type).
On the same counts, the results for IYEGFLDHANSF [TFB6 C-terminal 12 aa] are 0.735 ± 0.011 and 0.745 ± 0.012.
As to KAEYLKNCPITQ [RPC40 C-terminal 12 aa], the protein stability index reads like this: under setting [1], 0.712 ± 0.012; (genetic background: wild type) 0.719 ± 0.028.
In the case of KAIRRCQAIGLM [RSM18 C-terminal 12 aa], the protein stability index came to 0.683 ± 0.014 under setting [1] and 0.672 ± 0.0076 (genetic background: wild type).
On the same counts, the results for KALKWEEQELNM [CCM1 C-terminal 12 aa] are 0.711 ± 0.015 and 0.729 ± 0.057.
KAPKILYKRKGY [HPA2 C-terminal 12 aa] showed a protein stability index under setting [1] of 0.685 ± 0.024 and a protein stability index (genetic background: wild type) of 0.675 ± 0.036.
On the same counts, the results for KATQAIIGYTFK [VMA13 C-terminal 12 aa] are 0.70395 ± 0.00035 and 0.71 ± 0.023.
On the same counts, the results for “KCIRGGVFLWII [YGL014C-A C-terminal 12 aa]” are 0.605 ± 0.019 and 0.309 ± 0.0041.
On the same counts, the results for KDELERVAKSNR [RPS5 C-terminal 12 aa] are 0.6889 ± 0.0032 and 0.694 ± 0.017.
As to KENSRSWIIYLL [YGL034C C-terminal 12 aa], the protein stability index stood at 0.653 ± 0.016 under setting [1] and 0.556 ± 0.03 (genetic background: wild type).
On the same counts, the results for KESSTSSEKQIA [THI72 C-terminal 12 aa] are 0.67657 ± 0.00024 and 0.6804 ± 0.0025.
On the same counts, the results for KFSTRMKLAHGK [SLX1 C-terminal 12 aa] are 0.698 ± 0.019 and 0.728 ± 0.021.
For the sequence KGIKGFFHRIFD [YGR126W C-terminal 12 aa], the protein stability index under setting [1] was 0.6963 ± 0.002 and the protein stability index (genetic background: wild type) turned out to be 0.68 ± 0.018.
KHLAKALADLIS [JHD1 C-terminal 12 aa]: the protein stability index by setting is: under setting [1], 0.717 ± 0.018; (genetic background: wild type) 0.701 ± 0.032.
With “KICVTLIVNELI [YLR342W-A C-terminal 12 aa]”, the protein stability index worked out at 0.4662 ± 0.0016 under setting [1] and 0.39 ± 0.028 (genetic background: wild type).
With KIHTAAIAAFKQ [ATP12 C-terminal 12 aa], the protein stability index amounted to 0.7013 ± 0.0055 under setting [1] and 0.612 ± 0.033 (genetic background: wild type).
Sequence KILKGAEKKPQL [CNA1 C-terminal 12 aa] returned a protein stability index under setting [1] of 0.689 ± 0.0099 and a protein stability index (genetic background: wild type) of 0.707 ± 0.022.
The matching figures for KISTHSNAPSPG [SMA1 C-terminal 12 aa]: 0.669 ± 0.015 and 0.675 ± 0.022.
The matching figures for KIWVNIYSTPTS [PLS1 C-terminal 12 aa]: 0.6827 ± 0.0066 and 0.705 ± 0.035.
Regarding KKKGLFGRMKKK [YMR295C C-terminal 12 aa], the protein stability index is, setting by setting: under setting [1], 0.719 ± 0.028; (genetic background: wild type) 0.69 ± 0.067.
On the same counts, the results for KKKKPAAEGAAK [TMA22 C-terminal 12 aa] are 0.696 ± 0.026 and 0.708 ± 0.043.
For the sequence KKKSRAKKPGNV [HDA3 C-terminal 12 aa], the protein stability index runs as follows: under setting [1], 0.685 ± 0.011; (genetic background: wild type) 0.734 ± 0.041.
The matching figures for KKKVEFSFPDDI [MIL1 C-terminal 12 aa]: 0.701 ± 0.0087 and 0.73 ± 0.016.
The matching figures for KKPLFKRKVLQI [YNL205C C-terminal 12 aa]: 0.6883 ± 0.0025 and 0.422 ± 0.011.
Turning to KKVQSYTLQEDY [BUD13 C-terminal 12 aa], the protein stability index by setting is: under setting [1], 0.695 ± 0.015; (genetic background: wild type) 0.692 ± 0.03.
As for KLDDIIRARRSR [TGL3 C-terminal 12 aa], the protein stability index runs as follows: under setting [1], 0.7405 ± 0.0066; (genetic background: wild type) 0.692 ± 0.034.
For the sequence KLENDISVKVED [NTG1 C-terminal 12 aa], the protein stability index reads like this: under setting [1], 0.6863 ± 0.0054; (genetic background: wild type) 0.674 ± 0.014.
The matching figures for KLLEESKGLLDV [YJR079W C-terminal 12 aa]: 0.701 ± 0.023 and 0.699 ± 0.013.
As for KNFQEHLRSING [AGC1 C-terminal 12 aa], the protein stability index by setting is: under setting [1], 0.695 ± 0.01; (genetic background: wild type) 0.702 ± 0.032.
KNHEMGEEETKF [TCB1 C-terminal 12 aa] gave a protein stability index under setting [1] of 0.715 ± 0.0045 and a protein stability index (genetic background: wild type) of 0.721 ± 0.041.
In the case of KNNYSSRNSNIY [MSS116 C-terminal 12 aa], the protein stability index reads like this: under setting [1], 0.713 ± 0.0098; (genetic background: wild type) 0.711 ± 0.028.
In the case of KNRKRVLGVAYL [PXP3 C-terminal 12 aa], the protein stability index is 0.783 ± 0.022 under setting [1] and 0.837 ± 0.063 (genetic background: wild type).
On the same counts, the results for KNWGPKARPNTS [TRM1 C-terminal 12 aa] are 0.698 ± 0.016 and 0.655 ± 0.011.
On the same counts, the results for KPIEKVYFNRGI [FSF1 C-terminal 12 aa] are 0.713 ± 0.051 and 0.7368 ± 0.0054.
For KPIGEAAAIKEK [YLH47 C-terminal 12 aa], the protein stability index by setting is: under setting [1], 0.696 ± 0.027; (genetic background: wild type) 0.707 ± 0.044.
KQAIYTRATASE [RPS25A C-terminal 12 aa]: the protein stability index under setting [1] was found to be 0.693 ± 0.012 and the protein stability index (genetic background: wild type) was 0.687 ± 0.0034.
On the same counts, the results for KQIDVHLDKNKA [GCD7 C-terminal 12 aa] are 0.6862 ± 0.004 and 0.697 ± 0.0038.
Turning to KQIVFEIPSQTN [RPS7B C-terminal 12 aa], the protein stability index by setting is: under setting [1], 0.69872 ± 0.00027; (genetic background: wild type) 0.673 ± 0.0084.
For the sequence KQMYKYHIIVLF [YBL083C C-terminal 12 aa], the protein stability index stood at 0.305 ± 0.035 under setting [1] and 0.106 ± 0.0037 (genetic background: wild type).
For KRFTTNRNGNVI [GEF1 C-terminal 12 aa], the protein stability index reads like this: under setting [1], 0.732 ± 0.022; (genetic background: wild type) 0.696 ± 0.027.
Take KSCVSSLRVMAM [YNL276C C-terminal 12 aa]: the protein stability index was 0.608 ± 0.013 under setting [1] and 0.597 ± 0.023 (genetic background: wild type).
The matching figures for KSEGGDLPHLVQ [SPS4 C-terminal 12 aa]: 0.701 ± 0.024 and 0.68 ± 0.013.
The matching figures for KSKFQERLQQGL [RET3 C-terminal 12 aa]: 0.701 ± 0.0071 and 0.6467 ± 0.0052.
The matching figures for KVKTKKEEGKER [PXA2 C-terminal 12 aa]: 0.698 ± 0.022 and 0.654 ± 0.0067.
With KVPPRKDGIKFR [RTS2 C-terminal 12 aa], the protein stability index runs as follows: under setting [1], 0.728 ± 0.0069; (genetic background: wild type) 0.695 ± 0.018.
The matching figures for KWKKNKKRKFTK [UBP10 C-terminal 12 aa]: 0.729 ± 0.024 and 0.6898 ± 0.0066.
Regarding KWLLKPCIYKRR [RRP8 C-terminal 12 aa], the protein stability index is, setting by setting: under setting [1], 0.717 ± 0.0061; (genetic background: wild type) 0.691 ± 0.016.
Consider KYLNDEQVKLNV [ADE13 C-terminal 12 aa], for which the protein stability index stood at 0.72 ± 0.026 under setting [1] and 0.68 ± 0.035 (genetic background: wild type).
With KYTGVYRSSWHG [YLR125W C-terminal 12 aa], the protein stability index by setting is: under setting [1], 0.701 ± 0.0013; (genetic background: wild type) 0.6925 ± 0.0057.
The matching figures for KYVTQILYTPLQ [GAL83 C-terminal 12 aa]: 0.692 ± 0.0075 and 0.7144 ± 0.0036.
As for LAFFKRDFFKGL [NDI1 C-terminal 12 aa], the protein stability index is 0.699 ± 0.02 under setting [1] and 0.569 ± 0.039 (genetic background: wild type).
For LAIEIVLCLKAR [YLR255C C-terminal 12 aa], the protein stability index was 0.331 ± 0.0034 under setting [1] and 0.355 ± 0.019 (genetic background: wild type).
The matching figures for LALFAGLISALL [GAS3 C-terminal 12 aa]: 0.71854 ± 0.00069 and 0.654 ± 0.0065.
